Source: patent US20180312579A1 (Genentech, published 2018)

B1: 1A1 (antibody, V domains shown)
VH: EVQLVESGGGLVKPEGSLKLSCVASGFTFSDYFMSWVRQAPGQGLEWVAHIYTKTYNYATYYSGSVKGRFSISRDDSRNMVYLQMNNLRTEDTATYYCTTDEDWYFDFWGQGTQVTVSS
VL: QPVLTQSPSVSASLGASVKLTCTLSSQHSTNYIEWYQQHPDKSPKFLMQVRDGSHSKGDGTPDRFSGSSSGAHRYLSISNLQLEDEAIYYCGLSDVSLYLFGSGTQLTLL
notes: also called monoclonal antibody 1A1
B2: 5E11 (antibody, V domains shown)
VH: QVQLKQSGPGLVQPSQSLSITCTVSGFSLSSYAVHWVRQSPGEGLEWLGVIWSGGSTDYNAAFISRMSITKDNSKSQVFFKMNSLQADDTAIYFCARNDGYYYFDYWGQGTTLTVSS
VL: DIVMTQSTSSLSASLGDRVTISCRASQDISNYLNWYQQKPDGTVKLLIYYTSRLHSGVPSRFSGSGSGTDYSLTISNLEKEDVATYFCQHGDTLPPTFGGGTKLEIK
notes: also called monoclonal antibody 5E11

Assays:
recombinant human RSPO2 = recombinant human RSPO2 (human, UniProt Q6UXX9 22-243); assay: cell-based or functional assay
recombinant human RSPO3 = target: T1, recombinant human RSPO3 (human, UniProt Q9BXY4 22-272); assay: cell-based or functional assay
T1 sequence: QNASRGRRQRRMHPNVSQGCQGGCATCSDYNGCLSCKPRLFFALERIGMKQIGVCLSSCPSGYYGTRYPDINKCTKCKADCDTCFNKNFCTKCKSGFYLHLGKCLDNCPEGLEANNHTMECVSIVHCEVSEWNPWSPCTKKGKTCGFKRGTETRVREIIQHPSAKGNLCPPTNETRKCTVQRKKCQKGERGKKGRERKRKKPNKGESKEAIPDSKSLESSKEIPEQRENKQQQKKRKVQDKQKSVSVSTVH

cynomolgus RSPO3 = target: T2, cynomolgus RSPO3 (cynomolgus, UniProt A0A2K5UTQ7 22-273); assay: cell-based or functional assay
T2 sequence: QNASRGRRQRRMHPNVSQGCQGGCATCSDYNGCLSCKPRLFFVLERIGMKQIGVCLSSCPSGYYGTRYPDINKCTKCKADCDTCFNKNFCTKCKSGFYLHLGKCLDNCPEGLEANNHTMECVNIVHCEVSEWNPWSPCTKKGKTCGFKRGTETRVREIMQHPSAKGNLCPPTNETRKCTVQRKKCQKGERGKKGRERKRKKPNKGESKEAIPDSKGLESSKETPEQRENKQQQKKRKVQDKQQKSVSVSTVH

mouse RSPO3 = target: T3, mouse RSPO3 (mouse, UniProt Q2TJ95 22-277, limits assumed); assay: cell-based or functional assay
T3 sequence (looked up): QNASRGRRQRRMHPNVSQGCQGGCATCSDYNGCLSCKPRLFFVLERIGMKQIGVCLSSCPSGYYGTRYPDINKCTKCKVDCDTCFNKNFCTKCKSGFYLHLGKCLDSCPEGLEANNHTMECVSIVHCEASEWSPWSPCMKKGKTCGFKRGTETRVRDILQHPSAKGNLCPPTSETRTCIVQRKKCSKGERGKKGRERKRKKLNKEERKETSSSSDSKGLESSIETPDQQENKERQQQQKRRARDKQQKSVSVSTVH

cynomolgus RSPO2 = cynomolgus RSPO2 (cynomolgus, UniProt G7PCH9 22-243); assay: cell-based or functional assay
mouse RSPO2 = mouse RSPO2 (mouse, UniProt Q8BFU0 22-205, limits assumed); assay: cell-based or functional assay
[1] = target: T4, human RSPO2 L186P variant (human, UniProt Q6UXX9 22-243); assay: cell-based or functional assay
T4 chain: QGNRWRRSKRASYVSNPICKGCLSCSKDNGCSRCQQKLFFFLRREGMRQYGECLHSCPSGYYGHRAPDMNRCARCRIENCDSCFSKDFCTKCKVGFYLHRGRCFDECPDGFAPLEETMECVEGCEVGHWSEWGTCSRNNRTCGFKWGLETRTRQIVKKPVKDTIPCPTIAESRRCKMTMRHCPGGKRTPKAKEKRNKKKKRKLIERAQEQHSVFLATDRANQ

[2] = target: T5, human RSPO2 with C-terminal HA tag, stably expressed in 293 cells (human, UniProt Q6UXX9 22-243); assay: IHC, FFPE 293 cell pellet, RSPO2 Hi
T5 construct: Whole open reading frame was expressed from a lentiviral vector in HEK-293 cells sorted for high, medium or low expression; formalin-fixed paraffin-embedded pellets; also called hRSPO2; RSPO2 Hi

[3] = target: T5, human RSPO2 with C-terminal HA tag, …; assay: IHC, FFPE 293 cell pellet, RSPO2 Low
[4] = target: T5, human RSPO2 with C-terminal HA tag, …; assay: IHC, FFPE 293 cell pellet, RSPO2 Med
[5] = target: T6, human RSPO1 with C-terminal HA tag, stably expressed in 293 cells (human, UniProt Q2MKA7 21-263); assay: IHC, FFPE 293 cell pellet, RSPO1 Hi; - = not significant staining
T6 construct: also called hRSPO1; RSPO1 Hi

[6] = target: T7, human RSPO3 with C-terminal HA tag, stably expressed in 293 cells (human, UniProt Q9BXY4 22-272); assay: IHC, FFPE 293 cell pellet, RSPO3 Hi; - = not significant staining
T7 construct: Whole open reading frame expressed in HEK-293 cells (high, medium, low); FFPE pellets; also called hRSPO3; RSPO3 Hi
T7 sequence: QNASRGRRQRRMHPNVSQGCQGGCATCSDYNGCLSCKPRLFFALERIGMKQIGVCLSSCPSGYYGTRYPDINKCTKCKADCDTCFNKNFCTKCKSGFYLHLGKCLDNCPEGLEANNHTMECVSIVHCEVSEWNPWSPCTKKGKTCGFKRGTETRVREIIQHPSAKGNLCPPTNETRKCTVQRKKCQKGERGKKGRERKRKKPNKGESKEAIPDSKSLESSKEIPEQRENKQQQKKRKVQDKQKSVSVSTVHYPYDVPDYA

[7] = target: T8, human RSPO4 with C-terminal HA tag, stably expressed in 293 cells (human, UniProt Q2I0M5 20-234); assay: IHC, FFPE 293 cell pellet, RSPO4 Hi; - = not significant staining
T8 construct: also called hRSPO4; RSPO4 Hi

[8] = target: T9, FLAG-tagged human RSPO2 (Genentech) (human, UniProt Q6UXX9 22-243); assay: competitive binding ELISA: titrated against biotinylated RNF43-Flag (RNF43-ECD) binding to plate-coated hRSPO2; signal = bound RNF43, normalized OD
T9 construct: also called hRSPO2; RSPO2 coated plates; not shown: FLAG tag

[9] = target: T9, FLAG-tagged human RSPO2 (Genentech); assay: competitive binding ELISA: antibody titrated against LGR4-Fc (LGR4-ECD) binding to plate-coated hRSPO2; signal = bound LGR4-Fc, OD(450/630)/OD no antibody
Description: To measure the activity of anti-RSPO antibodies in blocking the binding of LGR4 and -5 ECDs to RSPOs, MaxiSorp 384-well microwell plates (Thermo Scientific Nunc, Roskilde, Denmark) were coated with 25 ul/well of 0.5 μg/ml hRSPO2 or hRSPO3 (Genentech) in 50 mM carbonate buffer, pH 9.6, overnight at 4° C. Plates were blocked with at 80 ul/well of 0.5% bovine serum albumin, 15 parts per million Proclin 300 in phosphate buffered saline (PBS), pH 7.4, for 1 hour. Serially diluted anti-RSPO antibodies ([…] in […] serial dilution plus buffer blank) containing 0.1 μg/ml LGR4-Fc or 0.015 μg/ml LGR5-Fc in assay buffer (0.5% BSA, 0.05% polysorbate 20, 15 parts per million Proclin 300 in PBS) were added to the plates at 25 ul/well. After a 2-hour incubation, LGR4-Fc and LGR5-Fc bound to the plates were detected using peroxidase labeled goat F(ab′)2 anti-human Fc (Jackson ImmunoResearch, West Grove, Pa.). After a 1 hour incubation, the substrate 3,3′,5,5′-tetramethyl benzidine (Moss Inc., Pasadena, Md.) was added to the plates and the reaction was stopped by adding 1 M phosphoric acid. Plates were washed with PBS, pH 7.4, containing 0.05% tween 20, between steps and all the incubation steps following the coating step were performed at room temperature on an orbital shaker. Absorbance was read at 450 nm on a multiskan Ascent reader (Thermo Scientific, Hudson, N.H.).

[10] = target: T7, human RSPO3 with C-terminal HA tag, …; assay: IHC, FFPE 293 cell pellet, RSPO3 Hi
[11] = target: T7, human RSPO3 with C-terminal HA tag, …; assay: IHC, FFPE 293 cell pellet, RSPO3 Low
[12] = target: T7, human RSPO3 with C-terminal HA tag, …; assay: IHC, FFPE 293 cell pellet, RSPO3 Med
[13] = target: T5, human RSPO2 with C-terminal HA tag, …; assay: IHC, FFPE 293 cell pellet, RSPO2 Hi; - = not significant staining
Target sequence in this assay (Q6UXX9 other isoform, or with tags, fused parts or gaps): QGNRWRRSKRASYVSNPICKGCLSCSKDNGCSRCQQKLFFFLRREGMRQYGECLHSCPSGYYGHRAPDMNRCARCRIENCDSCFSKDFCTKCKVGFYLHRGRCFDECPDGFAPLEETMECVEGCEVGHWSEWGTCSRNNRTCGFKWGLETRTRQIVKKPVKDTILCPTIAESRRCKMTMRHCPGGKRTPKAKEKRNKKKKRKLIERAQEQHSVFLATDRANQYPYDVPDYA

[14] = target: T10, FLAG-tagged human RSPO3 (Genentech) (human, UniProt Q9BXY4 22-272); assay: competitive binding ELISA: titrated against biotinylated RNF43-Flag (RNF43-ECD) binding to plate-coated hRSPO3; signal = bound RNF43, normalized OD
T10 construct: also called hRSPO3; RSPO3 coated plates; not shown: FLAG tag
T10 sequence: T1 sequence

[15] = target: T10, FLAG-tagged human RSPO3 (Genentech); assay: competitive binding ELISA: antibody titrated against LGR4-Fc (LGR4-ECD) binding to plate-coated hRSPO3; signal = bound LGR4-Fc, OD(450/630)/OD no antibody
Summary of the method: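 Plates coated with 0.5 μg/ml hRSPO2 or hRSPO3 at pH 9.6 were incubated 2 h at room temperature with antibody (0.078-10 […] dilutions) plus 0.1 μg/ml LGR4-Fc. Bound LGR4-Fc was detected by HRP anti-human Fc and TMB, with absorbance read at 450 nm.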

T6 sequence (Q2MKA7 other isoform, or with tags, fused parts or gaps limits assumed): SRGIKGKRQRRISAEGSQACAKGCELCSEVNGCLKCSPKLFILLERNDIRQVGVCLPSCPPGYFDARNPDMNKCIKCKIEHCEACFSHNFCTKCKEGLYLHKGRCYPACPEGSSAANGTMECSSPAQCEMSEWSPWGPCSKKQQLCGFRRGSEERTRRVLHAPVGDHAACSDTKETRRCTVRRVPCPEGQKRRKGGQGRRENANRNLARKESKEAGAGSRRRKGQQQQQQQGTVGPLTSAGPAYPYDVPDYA
T8 sequence (Q2I0M5 other isoform, or with tags, fused parts or gaps limits assumed): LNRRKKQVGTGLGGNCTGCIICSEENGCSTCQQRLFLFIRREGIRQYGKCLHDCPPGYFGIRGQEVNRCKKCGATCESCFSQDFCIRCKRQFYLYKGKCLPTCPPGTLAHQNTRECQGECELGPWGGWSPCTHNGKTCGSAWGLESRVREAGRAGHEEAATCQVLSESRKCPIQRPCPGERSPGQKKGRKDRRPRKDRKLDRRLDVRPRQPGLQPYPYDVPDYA
mouse RSPO2, sequence (Q8BFU0 22-205 limits assumed): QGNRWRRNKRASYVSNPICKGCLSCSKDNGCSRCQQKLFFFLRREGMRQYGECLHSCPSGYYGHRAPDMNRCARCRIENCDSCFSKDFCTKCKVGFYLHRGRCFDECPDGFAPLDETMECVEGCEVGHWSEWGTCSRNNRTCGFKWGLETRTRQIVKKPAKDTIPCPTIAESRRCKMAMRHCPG

| Binder | IC50, WNT luciferase reporter, bivalent antibody (recombinant human RSPO2) | IC50, WNT luciferase reporter, bivalent antibody (recombinant human RSPO3) | IC50, WNT luciferase reporter, bivalent antibody (cynomolgus RSPO3) | IC50, WNT luciferase reporter, bivalent antibody (mouse RSPO3) | IC50, WNT luciferase reporter, bivalent antibody (cynomolgus RSPO2) | IC50, WNT luciferase reporter, bivalent antibody (mouse RSPO2) | binding result [5] | binding result [7] | also measured |
| --- | --- | --- | --- | --- | --- | --- | --- | --- | --- |
| B1 | 0.0004 nM | > 500 nM | > 500 nM | > 500 nM | 0.0005 nM | 0.0022 nM | no binding | no binding | IC50 (read off the curve), WNT reporter RLU stimulated by 38 pM rhRSPO2 L186P [1]: ~0.6 pM; percentage of cells staining [2]: 80%; percentage of cells staining [3]: 30%; percentage of cells staining [4]: 40%; binding result [6]: no binding; IC50 (read off the curve) [8]: ~0.1 µg/mL; EC50 (read off the curve) [9]: ~0.07 µg/mL |
| B2 | > 500 nM | 0.09 nM | 0.31 nM | 0.5 nM | > 500 nM | > 500 nM | no binding | no binding | percentage of cells staining [10]: 90%; percentage of cells staining [11]: 20%; percentage of cells staining [12]: 80%; binding result [13]: no binding; IC50 (read off the curve) [14]: ~0.08 µg/mL; IC50 (read off the curve) [15]: ~0.1 µg/mL |
